In US20250011363A1, “OPTIMIZED SHORTENED PEPTIDE THAT BINDS TO ACETYLCHOLINE RECEPTOR, AND USE THEREOF” (SKINMED CO., LTD., priority 2021, published 2025):

These binders were tested against acetylcholine receptor (assay: SPR, AchR immobilised, peptide 10 uM).

Binder	Binding affinity (RU)
RKEANK [6mer-1-1086]	22 RU
RKKEMK [6mer-1-658]	20 RU
KKYNGK [6mer-1-642]	24 RU
RRCTVR [6mer-1-657]	17 RU
KKPSVK [6mer-1-1075]	38 RU
KKCTPR [6mer-1-1072]	36 RU
RRIAGK [6mer-1-649]	32 RU
RRFEFK [6mer-1-637]	33 RU
KRDKAK [6mer-1-1065]	23 RU
RKKEPK [6mer-1-1076]	43 RU
KKFKDR [6mer-1-663]	26 RU
RRPDIK [6mer-1-1078]	25 RU
KKIDKR [6mer-1-619]	23 RU
KRTCGR [6mer-1-1074]	24 RU
RKYKDR [6mer-1-636]	27 RU
KKESHR [6mer-1-638]	20 RU
RKCHVK [6mer-1-618]	19 RU
RRNCWR [6mer-1-640]	25 RU

Binder	Binding affinity (RU)
RKPKWR [6mer-1-661]	14 RU
KKHNMR [6mer-1-1080]	38 RU
KRHNVR [6mer-1-617]	31 RU
RRETHK [6mer-1-1088]	38 RU
KRPDNR [6mer-1-626]	27 RU
RKDTAR [6mer-1-632]	17 RU
RRCNNR [6mer-1-650]	18 RU
KRMEPR [6mer-1-630]	14 RU
KKCCPK [6mer-1-1084]	25 RU
RRTDWR [6mer-1-623]	21 RU
KKPWKR [6mer-1-1087]	27 RU
KRMTHR [6mer-1-653]	15 RU
KKIWAR [6mer-1-1069]	23 RU
RKIDAK [6mer-1-633]	16 RU
KRDHIK [6mer-1-664]	26 RU
RRPTHK [6mer-1-656]	28 RU
RRKWGR [6mer-1-1077]	24 RU

Continued, values first:

Binding affinity (RU)	Binder
18 RU	KKCPNR [6mer-1-622]
31 RU	KKYHVK [6mer-1-660]
20 RU	KKMTER [6mer-1-662]
12 RU	KKEEER [6mer-1-614]
33 RU	RRCTGK [6mer-1-646]
29 RU	KKPSKR [6mer-1-659]
17 RU	KKFWEK [6mer-1-648]
33 RU	RRTTIR [6mer-1-645]
29 RU	RRTWWR [6mer-1-627]
18 RU	KKTSER [6mer-1-615]
11 RU	RKMDAK [6mer-1-629]
23 RU	KRPSNK [6mer-1-1081]
36 RU	KKNAVR [6mer-1-1083]
23 RU	KRMNDR [6mer-1-654]
23 RU	RRENEK [6mer-1-628]
33 RU	KREAMK [6mer-1-1085]
11 RU	RRKTAK [6mer-1-620]
23 RU	RKEDVK [6mer-1-1066]
24 RU	KKTCDK [6mer-1-1070]
23 RU	KKNCHK [6mer-1-611]
14 RU	RKYNVR [6mer-1-647]
21 RU	KKCDGK [6mer-1-665]

Binding affinity (RU)	Binder
27 RU	KRICWK [6mer-1-651]
38 RU	RRKHWK [6mer-1-1067]
21 RU	RREMFK [6mer-1-641]
33 RU	KREDKK [6mer-1-625]
31 RU	KRYHIR [6mer-1-1068]
13 RU	RRYSDR [6mer-1-631]
31 RU	RKTWFR [6mer-1-644]
31 RU	KRYSMR [6mer-1-643]
30 RU	RRMAGK [6mer-1-621]
33 RU	KKTTWK [6mer-1-635]
27 RU	RKYMWK [6mer-1-1073]
14 RU	KRIMKK [6mer-1-613]
24 RU	KRPNVR [6mer-1-639]
25 RU	RKHPVK [6mer-1-1079]
12 RU	KKNTMR [6mer-1-634]
12 RU	RKNMFR [6mer-1-655]
31 RU	KKNTIK [6mer-1-616]
30 RU	KKPPAK [6mer-1-624]
17 RU	KRIMER [6mer-1-612]
38 RU	RKTKAK [6mer-1-1071]
26 RU	RRPEVK [6mer-1-652]
37 RU	KKTCDR [6mer-1-1082]
